Laboratory results taken from US20170101472A1 (Regeneron, published 2017).

T1: human LAG3 expressed on HEK293 cells (human, UniProt P18627 23-525)
T1 construct: also called hLAG3; HEK293/hLAG3
T1 sequence: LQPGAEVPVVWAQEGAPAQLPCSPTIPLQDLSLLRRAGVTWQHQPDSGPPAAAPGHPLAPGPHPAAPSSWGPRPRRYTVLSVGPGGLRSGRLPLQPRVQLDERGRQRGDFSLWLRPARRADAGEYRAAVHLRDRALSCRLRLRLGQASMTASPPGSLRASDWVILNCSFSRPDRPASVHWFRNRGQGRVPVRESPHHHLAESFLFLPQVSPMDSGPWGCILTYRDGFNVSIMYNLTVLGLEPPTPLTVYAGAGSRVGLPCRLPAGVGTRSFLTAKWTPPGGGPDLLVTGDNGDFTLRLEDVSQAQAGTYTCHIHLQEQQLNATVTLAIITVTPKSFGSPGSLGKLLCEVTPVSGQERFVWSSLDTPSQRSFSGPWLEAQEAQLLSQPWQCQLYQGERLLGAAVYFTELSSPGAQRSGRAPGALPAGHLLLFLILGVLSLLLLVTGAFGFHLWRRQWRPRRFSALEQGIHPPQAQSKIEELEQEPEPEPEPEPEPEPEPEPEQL

T2: human LAG3 chimera (extracellular domain of human LAG3 and trans-membrane/cytoplasmic domain of human CD300a) … (human, UniProt P18627 23-450; Q9UGN4 181-299, limits assumed)
T2 sequence (looked up): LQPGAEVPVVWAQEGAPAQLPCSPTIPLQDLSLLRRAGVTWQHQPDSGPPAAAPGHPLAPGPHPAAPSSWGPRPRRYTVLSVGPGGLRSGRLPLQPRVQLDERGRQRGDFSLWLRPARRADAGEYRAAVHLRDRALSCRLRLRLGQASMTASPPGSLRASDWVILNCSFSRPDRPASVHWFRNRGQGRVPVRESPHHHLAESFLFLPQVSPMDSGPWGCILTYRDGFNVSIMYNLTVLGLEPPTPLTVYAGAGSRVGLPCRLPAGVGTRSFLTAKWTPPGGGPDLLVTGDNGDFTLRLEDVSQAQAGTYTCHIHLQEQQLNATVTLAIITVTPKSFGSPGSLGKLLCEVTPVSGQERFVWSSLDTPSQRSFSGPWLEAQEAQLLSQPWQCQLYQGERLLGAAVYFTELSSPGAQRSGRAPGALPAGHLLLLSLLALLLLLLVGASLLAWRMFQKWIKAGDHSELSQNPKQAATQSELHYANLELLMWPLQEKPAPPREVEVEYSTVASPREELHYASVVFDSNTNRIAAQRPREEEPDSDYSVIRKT


Key:
[1] = target: T1, human LAG3 expressed on HEK293 cells; assay: electrochemiluminescence cell binding, HEK293-hLAG3
Description: To investigate the ability of a panel of anti-LAG3 monoclonal antibodies to bind cell-surface expressed LAG3, an in vitro binding assay utilizing human and monkey LAG3 expressing cell lines in an electrochemiluminescence based detection platform [Meso Scale Diagnostics, Rockville, Md.—(MSD)] was developed.
Experiments were carried out according to following procedure. Cells from the three cell lines described above were rinsed once in 1×PBS buffer without Ca²⁺/Mg²⁺ followed by 10-minute incubation at 37° C. with Enzyme Free Cell Dissociation Solution. […] Approximately 10,000 cells per well in the cell-washing buffer were seeded into the 96-well carbon electrode plates (MULTI-ARRAY high bind plate, MSD) and incubated for 1 hour at 37° C. to allow the cells to adhere. Nonspecific binding sites were blocked by 2% BSA (w/v) in PBS for 1 hour at room temperature. […] The plates were then washed to remove the unbound antibodies using an AquaMax2000 plate washer (MDS Analytical Technologies). The plate-bound antibodies were detected with a SULFO-TAG™-conjugated anti-human IgG antibody (MSD) for 1 hour at room temperature. After washes, the plates were developed with the Read Buffer (MSD) according to manufacturer's recommended procedure and the luminescent signals were recorded with a SECTOR Imager 6000 (MSD) instrument. The direct binding signals (in relative light units—RLU) were analyzed as a function of the antibody concentration and the data were fitted with a sigmoidal (four-parameter logistic) dose-response model using Graph Pad Prism™ software. The potency of each antibody was determined by calculating EC₅₀.

[2] = target: T1, human LAG3 expressed on HEK293 cells; assay: cell adherence assay, blocks RAJI (human MHCII) cells on HEK293-hLAG3
Description: (§1) Cells were plated into sterile Nunclon™ Delta 96-Well MicroWell™ Black Optical Bottom Plates (Thermo Scientific). The wells from the perimeter of the plate were not included in the assay design to avoid edge effects.
(§2) On the day of treatment, all antibodies were serially (1:3) diluted in RPMI media (without FBS or supplements added). The 9-point dilution ranged between 45 pM to 300 nM, with the last dilution point containing no mAb. […] While the plated HEK293-LAG3 cells were incubating with the test or control antibodies, non-adherent B-cells (RAJI or A20) were labeled with Calcein AM using the following procedure. RAJI and A20 suspension cells were harvested and centrifuged at 1,200 rpm for 5 minutes. Cell pellets were resuspended in 1×PBS and counted. Cells were washed with RPMI, and resuspended in RPMI at a concentration of 10⁶ cells per 1 ml. Cells were labeled by adding 5 μL of Calcein AM per 1 ml of cell suspension and incubated for 30 min at 37° C., at 5% CO₂. […] Subsequently, 10 μL of BD Pharmingen Fc Block (0.5 mg/mL) was added per 1 ml of the Calcein AM labeled cells, which were incubated at RT for 10 minutes. The Calcein AM-stained, Fc-blocked RAJI or A20 cells were resuspended in RPMI to a final concentration of 3×10⁶ cells per 1 ml and subsequently used in the adherence assay.
(§3) The labeled suspension cells were incubated with the HEK293 monolayer for 1 hour at 37° C., at 5% CO₂.

[3] = target: T2, human LAG3 chimera (extracellular …); assay: cell-based or functional assay
[4] = target: T1, human LAG3 expressed on HEK293 cells; assay: cell adherence assay, blocks A20 (mouse MHCII) cells on HEK293-hLAG3
Description: as §1, §2, §3

EC50 [1] [nM] | IC50 [2] [nM] | EC50, AP1-Luc signaling, bispecific mode [3] [nM] | EC50, AP1-Luc signaling, peptide mode [3] [nM] | IC50 [4] [nM] | Binder
52 | 31 | 0.145 | 0.284 | 11 | H4H15479P (antibody, human IgG4, V domains shown) VH: QVQLQQWGAGLLNPSETLSLTCAVYGGAFSDYYWNWIRQPPGKGLEWIGEINHRGSTNYNPSLKSRVTISVDTSKNQFSLRMSSVTAADAAVYYCARGEDYDIWNGYYQEKWGQGTLVTVSS VL: EIVLTQSPATLSLSPGERATLSCRASQSISTYLAWYQQKPGQAPRLLIYDASKRATGIPARFSGSGSGTDFTLTISSLEPEDFVVYYCHQRSNWPLTFGGGTKVEIK
19.9 | 17 | 1.07 | 1.01 | 10 | H4H14813N (antibody, human IgG4, V domains shown, H4H = human IgG4 Fc with S108P hinge mutation) VH: QVQLQQWGAGLLKPSETLSLTCAVYGGSFSGYYWNWIRQPPGKGLEWVGEISHRGSTNYNPSLKSRVTISLDTSKNQFSLKLTSVTAADTAVYYCSRDEELEFRFFDYWGQGTLVTVSS VL: EIVLTQSPATLSLSPGERATLSCRASQSVSSYLAWYQQKPGQAPRLLVYGASNRATGIPARFSGSGSGTDFTLTISSLEPEDFAFYYCQQRSNWPLTFGGGTKVEIK
17.2 | 19 | 3.69 | 2.54 | 16 | H4H15483P (antibody, human IgG4, V domains shown, H4H = human IgG4 Fc with S108P hinge mutation) VH: QVQLQQWGAGLLPPSETLSLICAVYGGSFSGYYWSWIRQPPGKGLEWIGEINHRGSTNYNPSLKSRATISVDTSKNQFSLKLSSVTAADTAVYYCSRGEDYYDSSGYSYYFDYWGQGTLVTVSS VL: EIVLTQSPATLSLSPGERATLSCRASQSVSSYLAWYQQKPGQAPRLLIYDASNRATGIPARFSGSGSGTDFTLTISSLEPEDFAVYYCQQRSNWPLTFGGGTKVEIK
0.69 | 17 | > 100 | 2.12 | 16 | H4H17819P (antibody, human IgG4, V domains shown, H4H = human IgG4 Fc with S108P hinge mutation) VH: EVQLVESGGGLVQPGGSLRLSCVASGFTFSLYAMTWVRQVPGKGLEWVSTISGSGGGTYYTDSVKGRFTISRDNSKNTLYLQMNSLRADDTAVFYCTKESTTGTYSYFYGMDVWGQGTTVTVSS VL: DIQMTQSPSSLSASVGDRVTITCRASQTISSYLNWYQQKPGKAPKLLIYAASSLQSGVPSRFSGSGSGTDFTLTLSGLQPEDFATYYCQQSYSTPLTFGGGTKVEIK
1.5 | 8.6 | > 100 | 0.688 | 9.4 | H4H17823P (antibody, human IgG4, V domains shown, H4H = human IgG4 Fc with S108P hinge mutation) VH: EVQLLESGGGLVQPGGSLRLSCAASGFTFRSYAMSWVRQAPGKGLEWVSVISGGGGRTYYTDSVKGRFTISRDNSKSMLYLQMNSLRAEDTAIYYCAKERVTGIDHYYYGVDVWGQGTTVTVSS VL: DIQMTQSPSSLSASVGDRVTITCRASQSISSYLNWYQQKPGKAPKLLIYATSSLQSGVPSRFSGSASGTDFTLAISSLQPEDFATYYCQQSYTTPLTFGGGTKVEIK
20.3 | 6 | 0.688 | 0.816 | 10 | H4sH14813N (antibody, human IgG4 S228P, kappa, V domains shown, H4sH = modified human IgG4 Fc) VH: QVQLQQWGAGLLKPSETLSLTCAVYGGSFSGYYWNWIRQPPGKGLEWVGEISHRGSTNYNPSLKSRVTISLDTSKNQFSLKLTSVTAADTAVYYCSRDEELEFRFFDYWGQGTLVTVSS VL: EIVLTQSPATLSLSPGERATLSCRASQSVSSYLAWYQQKPGQAPRLLVYGASNRATGIPARFSGSGSGTDFTLTISSLEPEDFAFYYCQQRSNWPLTFGGGTKVEIKR
– | 3.3 | 0.518 | 0.806 | 3.8 | H4sH15482P (antibody, human IgG4 S228P, kappa, H4sH = modified human IgG4 Fc; also called mAb1) heavy: QVQLVESGGGVVQPGRSLRLSCVASGFTFSSYGMHWVRQAPGKGLEWVAIIWYDGSNKYYADSVKGRFTISRDNSKNTQYLQMNSLRAEDTAVYYCASVATSGDFDYYGMDVWGQGTTVTVSSASTKGPSVFPLAPCSRSTSESTAALGCLVKDYFPEPVTVSWNSGALTSGVHTFPAVLQSSGLYSLSSVVTVPSSSLGTKTYTCNVDHKPSNTKVDKRVESKYGPPCPPCPAPPVAGPSVFLFPPKPKDTLMISRTPEVTCVVVDVSQEDPEVQFNWYVDGVEVHNAKTKPREEQFNSTYRVVSVLTVLHQDWLNGKEYKCKVSNKGLPSSIEKTISKAKGQPREPQVYTLPPSQEEMTKNQVSLTCLVKGFYPSDIAVEWESNGQPENNYKTTPPVLDSDGSFFLYSRLTVDKSRWQEGNVFSCSVMHEALHNHYTQKSLSLSLGK light: EIVLTQSPATLSLSPGERTTLSCRASQRISTYLAWYQQKPGQAPRLLIYDASKRATGIPARFSGSGSGTGFTLTISSLEPEDFAVYYCQQRSNWPLTFGGGTKVEIKRTVAAPSVFIFPPSDEQLKSGTASVVCLLNNFYPREAKVQWKVDNALQSGNSQESVTEQDSKDSTYSLSSTLTLSKADYEKHKVYACEVTHQGLSSPVTKSFNRGEC
24.7 | 15 | > 100 | 2.48 | 11 | H4H15482P (antibody, human IgG4 S228P, kappa, H4H = human IgG4 Fc with S108P) heavy: not shown light: EIVLTQSPATLSLSPGERTTLSCRASQRISTYLAWYQQKPGQAPRLLIYDASKRATGIPARFSGSGSGTGFTLTISSLEPEDFAVYYCQQRSNWPLTFGGGTKVEIKRTVAAPSVFIFPPSDEQLKSGTASVVCLLNNFYPREAKVQWKVDNALQSGNSQESVTEQDSKDSTYSLSSTLTLSKADYEKHKVYACEVTHQGLSSPVTKSFNRGEC
2.87 | 16 | > 100 | 4.61 | 21 | H4sH15498P2 (antibody, V domains shown, H4sH = human IgG4 Fc with 2 or more amino acid changes as disclosed in US20140243504) VH: EVQLVESGGGLVQPGGSLRLSCAASGFTFTSYAMTWVRQAPGKGLEWVSDISGSGGRTYYADSVKGRFTISRDNSKNMLYLQMNILRAEDTAVYHCAKGTGQQVDLYNYYYALDVWGQGTTVTVSS VL: not shown
2.95 | 15 | 6.62 | 5.89 | 30 | H4H15498P2 (antibody, human IgG4, V domains shown, H4H = human IgG4 Fc with S108P hinge mutation) VH: EVQLVESGGGLVQPGGSLRLSCAASGFTFTSYAMTWVRQAPGKGLEWVSDISGSGGRTYYADSVKGRFTISRDNSKNMLYLQMNILRAEDTAVYHCAKGTGQQVDLYNYYYALDVWGQGTTVTVSS VL: not shown
